Assay results taken from US10919943B2, “Mutant proteins enabling agrochemical control of plant gene expression” (The Regents of the University of California, priority 2016, dated 2021).

System: HAB1
Test: Yeast two hybrid of pBD-PYR1 site saturation mutants with pACT-HAB1 on 10 μM ABA, β-galactosidase staining
Type: cell-based, Arabidopsis
Parameters: key: x: Mutations in PYR1 that disrupt ABA-induced binding to PYR1 to HAB1
Conditions: S. cerevisiae Y190, 10 μM ABA; dead = lack of visible staining in comparison to wild type control
Procedure, shortened: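 S. cerevisiae Y190 co-expressing GAL4-DNA-binding-domain–PYR1 mutants and GAL4-activation-domain–HAB1 were spotted on SD (-Leu, -Trp) agar with 10 μM (+)-ABA for 2 days at 30° C. Colonies were chloroform-lysed and stained for β-galactosidase. Mutants lacking visible staining relative to wild type were scored as non-binding.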

Row | Mutations in PYR1 that disrupt ABA-induced binding to PYR1 to HAB1 | Molecule
1 | x | L117W: PYR1 mutant (protein, UniProt O49686 1-191, looked up, variant L117W) Abscisic acid receptor PYR1: MPSELTPEERSELKNSIAEFHTYQLDPGSCSSLHAQRIHAPPELVWSIVRRFDKPQTYKHFIKSCSVEQNFEMRVGCTRDVIVISGLPANTSTERLDILDDERRVTGFSIIGGEHRWTNYKSVTTVHRFEKENRIWTVVLESYVVDMPEGNSEDDTRMFADTVVKLNLQKLATVAEAMARNSGDGSGSQVT
2 | x | L117P: PYR1 mutant (protein, UniProt O49686 1-191, looked up, variant L117P) Abscisic acid receptor PYR1: MPSELTPEERSELKNSIAEFHTYQLDPGSCSSLHAQRIHAPPELVWSIVRRFDKPQTYKHFIKSCSVEQNFEMRVGCTRDVIVISGLPANTSTERLDILDDERRVTGFSIIGGEHRPTNYKSVTTVHRFEKENRIWTVVLESYVVDMPEGNSEDDTRMFADTVVKLNLQKLATVAEAMARNSGDGSGSQVT
3 | x | L117R: PYR1 mutant (protein, UniProt O49686 1-191, looked up, variant L117R) Abscisic acid receptor PYR1: MPSELTPEERSELKNSIAEFHTYQLDPGSCSSLHAQRIHAPPELVWSIVRRFDKPQTYKHFIKSCSVEQNFEMRVGCTRDVIVISGLPANTSTERLDILDDERRVTGFSIIGGEHRRTNYKSVTTVHRFEKENRIWTVVLESYVVDMPEGNSEDDTRMFADTVVKLNLQKLATVAEAMARNSGDGSGSQVT
4 | x | L117Y: PYR1 mutant (protein, UniProt O49686 1-191, looked up, variant L117Y) Abscisic acid receptor PYR1: MPSELTPEERSELKNSIAEFHTYQLDPGSCSSLHAQRIHAPPELVWSIVRRFDKPQTYKHFIKSCSVEQNFEMRVGCTRDVIVISGLPANTSTERLDILDDERRVTGFSIIGGEHRYTNYKSVTTVHRFEKENRIWTVVLESYVVDMPEGNSEDDTRMFADTVVKLNLQKLATVAEAMARNSGDGSGSQVT
5 | x | L117N: PYR1 mutant (protein, UniProt O49686 1-191, looked up, variant L117N) Abscisic acid receptor PYR1: MPSELTPEERSELKNSIAEFHTYQLDPGSCSSLHAQRIHAPPELVWSIVRRFDKPQTYKHFIKSCSVEQNFEMRVGCTRDVIVISGLPANTSTERLDILDDERRVTGFSIIGGEHRNTNYKSVTTVHRFEKENRIWTVVLESYVVDMPEGNSEDDTRMFADTVVKLNLQKLATVAEAMARNSGDGSGSQVT
6 | x | L117S: PYR1 mutant (protein, UniProt O49686 1-191, looked up, variant L117S) Abscisic acid receptor PYR1: MPSELTPEERSELKNSIAEFHTYQLDPGSCSSLHAQRIHAPPELVWSIVRRFDKPQTYKHFIKSCSVEQNFEMRVGCTRDVIVISGLPANTSTERLDILDDERRVTGFSIIGGEHRSTNYKSVTTVHRFEKENRIWTVVLESYVVDMPEGNSEDDTRMFADTVVKLNLQKLATVAEAMARNSGDGSGSQVT
7 | x | L117K: PYR1 mutant (protein, UniProt O49686 1-191, looked up, variant L117K) Abscisic acid receptor PYR1: MPSELTPEERSELKNSIAEFHTYQLDPGSCSSLHAQRIHAPPELVWSIVRRFDKPQTYKHFIKSCSVEQNFEMRVGCTRDVIVISGLPANTSTERLDILDDERRVTGFSIIGGEHRKTNYKSVTTVHRFEKENRIWTVVLESYVVDMPEGNSEDDTRMFADTVVKLNLQKLATVAEAMARNSGDGSGSQVT
8 | x | L117T: PYR1 mutant (protein, UniProt O49686 1-191, looked up, variant L117T) Abscisic acid receptor PYR1: MPSELTPEERSELKNSIAEFHTYQLDPGSCSSLHAQRIHAPPELVWSIVRRFDKPQTYKHFIKSCSVEQNFEMRVGCTRDVIVISGLPANTSTERLDILDDERRVTGFSIIGGEHRTTNYKSVTTVHRFEKENRIWTVVLESYVVDMPEGNSEDDTRMFADTVVKLNLQKLATVAEAMARNSGDGSGSQVT
9 | x | L117V: PYR1 mutant (protein, UniProt O49686 1-191, looked up, variant L117V) Abscisic acid receptor PYR1: MPSELTPEERSELKNSIAEFHTYQLDPGSCSSLHAQRIHAPPELVWSIVRRFDKPQTYKHFIKSCSVEQNFEMRVGCTRDVIVISGLPANTSTERLDILDDERRVTGFSIIGGEHRVTNYKSVTTVHRFEKENRIWTVVLESYVVDMPEGNSEDDTRMFADTVVKLNLQKLATVAEAMARNSGDGSGSQVT
10 | x | L117Q: PYR1 mutant (protein, UniProt O49686 1-191, looked up, variant L117Q) Abscisic acid receptor PYR1: MPSELTPEERSELKNSIAEFHTYQLDPGSCSSLHAQRIHAPPELVWSIVRRFDKPQTYKHFIKSCSVEQNFEMRVGCTRDVIVISGLPANTSTERLDILDDERRVTGFSIIGGEHRQTNYKSVTTVHRFEKENRIWTVVLESYVVDMPEGNSEDDTRMFADTVVKLNLQKLATVAEAMARNSGDGSGSQVT

The next lines start with the molecule.

Row | Molecule | Mutations in PYR1 that disrupt ABA-induced binding to PYR1 to HAB1
11 | R116D: PYR1 mutant (protein, UniProt O49686 1-191, looked up, variant R116D) Abscisic acid receptor PYR1: MPSELTPEERSELKNSIAEFHTYQLDPGSCSSLHAQRIHAPPELVWSIVRRFDKPQTYKHFIKSCSVEQNFEMRVGCTRDVIVISGLPANTSTERLDILDDERRVTGFSIIGGEHDLTNYKSVTTVHRFEKENRIWTVVLESYVVDMPEGNSEDDTRMFADTVVKLNLQKLATVAEAMARNSGDGSGSQVT | x
12 | R116G: PYR1 mutant (protein, UniProt O49686 1-191, looked up, variant R116G) Abscisic acid receptor PYR1: MPSELTPEERSELKNSIAEFHTYQLDPGSCSSLHAQRIHAPPELVWSIVRRFDKPQTYKHFIKSCSVEQNFEMRVGCTRDVIVISGLPANTSTERLDILDDERRVTGFSIIGGEHGLTNYKSVTTVHRFEKENRIWTVVLESYVVDMPEGNSEDDTRMFADTVVKLNLQKLATVAEAMARNSGDGSGSQVT | x
13 | R116F: PYR1 mutant (protein, UniProt O49686 1-191, looked up, variant R116F) Abscisic acid receptor PYR1: MPSELTPEERSELKNSIAEFHTYQLDPGSCSSLHAQRIHAPPELVWSIVRRFDKPQTYKHFIKSCSVEQNFEMRVGCTRDVIVISGLPANTSTERLDILDDERRVTGFSIIGGEHFLTNYKSVTTVHRFEKENRIWTVVLESYVVDMPEGNSEDDTRMFADTVVKLNLQKLATVAEAMARNSGDGSGSQVT | x
14 | L117A: PYR1 mutant (protein, UniProt O49686 1-191, looked up, variant L117A) Abscisic acid receptor PYR1: MPSELTPEERSELKNSIAEFHTYQLDPGSCSSLHAQRIHAPPELVWSIVRRFDKPQTYKHFIKSCSVEQNFEMRVGCTRDVIVISGLPANTSTERLDILDDERRVTGFSIIGGEHRATNYKSVTTVHRFEKENRIWTVVLESYVVDMPEGNSEDDTRMFADTVVKLNLQKLATVAEAMARNSGDGSGSQVT | x
15 | R116I: PYR1 mutant (protein, UniProt O49686 1-191, looked up, variant R116I) Abscisic acid receptor PYR1: MPSELTPEERSELKNSIAEFHTYQLDPGSCSSLHAQRIHAPPELVWSIVRRFDKPQTYKHFIKSCSVEQNFEMRVGCTRDVIVISGLPANTSTERLDILDDERRVTGFSIIGGEHILTNYKSVTTVHRFEKENRIWTVVLESYVVDMPEGNSEDDTRMFADTVVKLNLQKLATVAEAMARNSGDGSGSQVT | x
16 | L117D: PYR1 mutant (protein, UniProt O49686 1-191, looked up, variant L117D) Abscisic acid receptor PYR1: MPSELTPEERSELKNSIAEFHTYQLDPGSCSSLHAQRIHAPPELVWSIVRRFDKPQTYKHFIKSCSVEQNFEMRVGCTRDVIVISGLPANTSTERLDILDDERRVTGFSIIGGEHRDTNYKSVTTVHRFEKENRIWTVVLESYVVDMPEGNSEDDTRMFADTVVKLNLQKLATVAEAMARNSGDGSGSQVT | x
17 | L117H: PYR1 mutant (protein, UniProt O49686 1-191, looked up, variant L117H) Abscisic acid receptor PYR1: MPSELTPEERSELKNSIAEFHTYQLDPGSCSSLHAQRIHAPPELVWSIVRRFDKPQTYKHFIKSCSVEQNFEMRVGCTRDVIVISGLPANTSTERLDILDDERRVTGFSIIGGEHRHTNYKSVTTVHRFEKENRIWTVVLESYVVDMPEGNSEDDTRMFADTVVKLNLQKLATVAEAMARNSGDGSGSQVT | x
18 | L117G: PYR1 mutant (protein, UniProt O49686 1-191, looked up, variant L117G) Abscisic acid receptor PYR1: MPSELTPEERSELKNSIAEFHTYQLDPGSCSSLHAQRIHAPPELVWSIVRRFDKPQTYKHFIKSCSVEQNFEMRVGCTRDVIVISGLPANTSTERLDILDDERRVTGFSIIGGEHRGTNYKSVTTVHRFEKENRIWTVVLESYVVDMPEGNSEDDTRMFADTVVKLNLQKLATVAEAMARNSGDGSGSQVT | x
19 | R116E: PYR1 mutant (protein, UniProt O49686 1-191, looked up, variant R116E) Abscisic acid receptor PYR1: MPSELTPEERSELKNSIAEFHTYQLDPGSCSSLHAQRIHAPPELVWSIVRRFDKPQTYKHFIKSCSVEQNFEMRVGCTRDVIVISGLPANTSTERLDILDDERRVTGFSIIGGEHELTNYKSVTTVHRFEKENRIWTVVLESYVVDMPEGNSEDDTRMFADTVVKLNLQKLATVAEAMARNSGDGSGSQVT | x
20 | L117E: PYR1 mutant (protein, UniProt O49686 1-191, looked up, variant L117E) Abscisic acid receptor PYR1: MPSELTPEERSELKNSIAEFHTYQLDPGSCSSLHAQRIHAPPELVWSIVRRFDKPQTYKHFIKSCSVEQNFEMRVGCTRDVIVISGLPANTSTERLDILDDERRVTGFSIIGGEHRETNYKSVTTVHRFEKENRIWTVVLESYVVDMPEGNSEDDTRMFADTVVKLNLQKLATVAEAMARNSGDGSGSQVT | x
21 | R116H: PYR1 mutant (protein, UniProt O49686 1-191, looked up, variant R116H) Abscisic acid receptor PYR1: MPSELTPEERSELKNSIAEFHTYQLDPGSCSSLHAQRIHAPPELVWSIVRRFDKPQTYKHFIKSCSVEQNFEMRVGCTRDVIVISGLPANTSTERLDILDDERRVTGFSIIGGEHHLTNYKSVTTVHRFEKENRIWTVVLESYVVDMPEGNSEDDTRMFADTVVKLNLQKLATVAEAMARNSGDGSGSQVT | x
